Tested on: apRAD51C-CTD-1 WT (Alvinella pompejana)
Experiment: fluorescence polarization
Conditions: FP: 20 mM HEPES pH 8, 80 mM NaCl, 2.5 mM ATP, 2.5 mM MgCl2, 1 mM DTT, 0.1 mg/mL BSA, 10 nM DNA, 37 C 20 min, EMSA: 20 mM Tris pH 8.0, 150 mM KCl, 4 C 15 min

## TTTTTTTTTTTTTTTTTTTT [poly-20dT]
  Kd: 1.25 µM

From publication PMC10366140
